Target: T1, radiolabeled (I-125) SDF-1α (stromal cell-derived factor-1 alpha) (UniProt P48061-2 22-89, 125I radiolabel (position not given))
T1 construct: SDF-1α (stromal cell-derived factor-1 alpha), the natural ligand of CXCR4; the alpha isoform
Experiment: radioligand binding; saturation assay: constant CXCR4-ACM concentration, varying 125I-SDF, with and without 0.5 µM unlabeled SDF; 96-well plate, filtration; GraphPad Prism
Details: both partners purified

T1 sequence (P48061 22-89): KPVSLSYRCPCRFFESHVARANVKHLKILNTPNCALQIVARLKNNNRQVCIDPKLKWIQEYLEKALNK

B1: CXCR4 embedded in polymersome membranes (CXCR4-ACMs) (receptor, UniProt P61073 1-352, looked up)
chain: MEGISIYTSDNYTEEMGSGDYDSMKEPCFREENANFNKIFLPTIYSIIFLTGIVGNGLVILVMGYQKKLRSMTDKYRLHLSVADLLFVITLPFWAVDAVANWYFGNFLCKAVHVIYTVNLYSSVLILAFISLDRYLAIVHATNSQRPRKLLAEKVVYVGVWIPALLLTIPDFIFANVSEADDRYICDRFYPNDLWVVVFQFQHIMVGLILPGIVILSCYCIIISKLSHSKGHQKRKALKTTVILILAFFACWLPYYIGISIDSFILLEIIKQGCEFENTVHKWISITEALAFFHCCLNPILYAFLGAKFKTSAQHALTSVSRGSSLKILSKGKRGGHSSVSTESESSSFHSS
notes: Receptor sits in polybutadiene-b-poly(ethylene oxide) polymersome membrane with 1% DSPE-PEG-biotin; The introduction speaks in general of 'native, full-length membrane proteins' for this approach; also called C4-ACMs; native CXCR4
- Kd: 8.4 nM

Source: article PMC4203850, “Conformational Antibody Binding to a Native, Cell-Free Expressed GPCR in Block Copolymer Membranes” (PLoS ONE, 2014)
